Reference: PMC4661090 (FEBS letters, 2015)

Biological target: the molecule itself
Assay: SEC

Protein	stoichiometry N
thiostrepton resistance methyltransferase Tsr (wild type) (enzyme) MTELDTIANPSDPAVQRIIDVTKPSRSNIKTTLIEDVEPLMHSIAAGVEFIEVYGSDSSPFPSELLDLCGRQNIPVRLIDSSIVNQLFKGERKAKTFGIARVPRPARFGDIASRRGDVVVLDGVKIVGNIGAIVRTSLALGASGIILVDSDITSIADRRLQRASRGYVFSLPVVLSGREEAIAFIRDSGMQLMTLKADGDISVKELGDNPDRLALLFGSEKGGPSDLFEEASSASVSIPMMSQTESLNVSVSLGIALHERIDRNLAANR	2
Tsr N129A mutant (enzyme, S. cyaneus, UniProt P18644 1-269, looked up) MTELDTIANPSDPAVQRIIDVTKPSRSNIKTTLIEDVEPLMHSIAAGVEFIEVYGSDSSPFPSELLDLCGRQNIPVRLIDSSIVNQLFKGERKAKTFGIARVPRPARFGDIASRRGDVVVLDGVKIVGAIGAIVRTSLALGASGIILVDSDITSIADRRLQRASRGYVFSLPVVLSGREEAIAFIRDSGMQLMTLKADGDISVKELGDNPDRLALLFGSEKGGPSDLFEEASSASVSIPMMSQTESLNVSVSLGIALHERIDRNLAANR	2
